Laboratory results published in paper PMC12262736.

Experiments:
[1] = target: LiaS (Enterococcus faecalis); assay: MST
[2] = target: MadS (Enterococcus faecalis); assay: MST

LiaR (natural protein) showed a Kd [1] of 2.42 µM and a Kd [2] of 25.7 µM.
Work on MadR (natural protein) yielded a Kd [1] of 5.02 µM and a Kd [2] of 8.08 µM.
